We go through two molecules from patent US20140329320A1 (OBSCHESTVO S OGRANICHENNOI OTVETSTVENNOSTYU TEKHNOPHARMA, published 2014).

The experiment has as its target T1, chicken ovalbumin protein (chicken, UniProt P01012 2-386).
T1 construct: Immobilized in wells as negative control of the MIF assay; also called nonspecific protein; negative control
T1 sequence: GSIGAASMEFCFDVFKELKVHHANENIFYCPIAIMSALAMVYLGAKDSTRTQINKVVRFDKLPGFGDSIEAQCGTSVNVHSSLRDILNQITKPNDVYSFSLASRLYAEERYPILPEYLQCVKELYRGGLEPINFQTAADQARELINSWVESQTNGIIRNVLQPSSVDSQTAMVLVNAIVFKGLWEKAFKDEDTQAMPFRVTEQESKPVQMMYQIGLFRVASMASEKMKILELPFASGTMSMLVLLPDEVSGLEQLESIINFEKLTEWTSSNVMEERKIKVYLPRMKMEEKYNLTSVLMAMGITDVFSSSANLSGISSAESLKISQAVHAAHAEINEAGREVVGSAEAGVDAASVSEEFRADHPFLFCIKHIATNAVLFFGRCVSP
Nature of the experiment: microimmunofluorescence (MIF) on immobilized antigen, anti-HA and FITC secondary detection.

B1: aCt1 nanoantibody (VHH)
VHH: QVQLVESGGGSVQAGGSLRLSCTTSHYVASNSCMAWFRQAPGKKREGVASISRRADITFYADSVKERFVISRDNSERTLYLQMNSLKPEDTAMYYCAADLSYCGLTEEGYNHWGQGTQVTVSS
notes: also called single domain nanoantibody aCt1
For the molecule B1, the binding result is “no binding (tested: 10 µ/ml)”.

B2: aCt2 nanoantibody (VHH)
VHH: QVQLVESGGGSVQAGGSLRLHCASSGYVEARILMGWFRQAPGKEREGVAAIYIGDGTTDYGDSVKGRFTVSQDGAKNAIYLHMYDVKPEDAATYYCAAGIMPWYRTWSGRLNVGDFDSWGQGTQVTVSS
notes: also called single domain nanoantibody aCt2
As to B2, the binding result was “no binding (tested: 10 µ/ml)”.
